Patent US20240409598A1, “PEPTIDE INHIBITORS OF INTERLEUKIN-23 RECEPTOR” (Janssen Biotech, Inc., priority 2021, published 2024)
*1 amine or outer side, *2 acyl side, *3 side chain or, on linkers, in order; H or OH if unused. Bridges are numbered along the chain shown (N, C = ends). Primed or numbered codes have the meaning given here. [ ]: non-standard residue; d: D form. AEF(G) = 4-(2-guanidinoethoxy)phenylalanine, N=C(N)NCCOc1ccc(C[C@H](N[*:1])C(=O)[*:2])cc1; Trp(7-Me) = Cc1cccc2c(C[C@H](N)C(=O)O)c[nH]c12; 3Pal(5-Me) = Cc1cncc(C[C@H](N)C(=O)O)c1; 2Nal = N[C@@H](Cc1ccc2ccccc2c1)C(=O)O; 3Pal = N[C@@H](Cc1cccnc1)C(=O)O; Pen = CC(C)(S)[C@H](N)C(=O)O; αMeC = C[C@](N)(CS)C(=O)O; AEF′ = not defined here; Abu = CC[C@H](N)C(=O)O; THP = not defined here; Sar = CNCC(=O)O

T1: interleukin-23 receptor (IL-23R) (UniProt Q5VWK5 24-629, limits assumed)
T1 sequence (looked up): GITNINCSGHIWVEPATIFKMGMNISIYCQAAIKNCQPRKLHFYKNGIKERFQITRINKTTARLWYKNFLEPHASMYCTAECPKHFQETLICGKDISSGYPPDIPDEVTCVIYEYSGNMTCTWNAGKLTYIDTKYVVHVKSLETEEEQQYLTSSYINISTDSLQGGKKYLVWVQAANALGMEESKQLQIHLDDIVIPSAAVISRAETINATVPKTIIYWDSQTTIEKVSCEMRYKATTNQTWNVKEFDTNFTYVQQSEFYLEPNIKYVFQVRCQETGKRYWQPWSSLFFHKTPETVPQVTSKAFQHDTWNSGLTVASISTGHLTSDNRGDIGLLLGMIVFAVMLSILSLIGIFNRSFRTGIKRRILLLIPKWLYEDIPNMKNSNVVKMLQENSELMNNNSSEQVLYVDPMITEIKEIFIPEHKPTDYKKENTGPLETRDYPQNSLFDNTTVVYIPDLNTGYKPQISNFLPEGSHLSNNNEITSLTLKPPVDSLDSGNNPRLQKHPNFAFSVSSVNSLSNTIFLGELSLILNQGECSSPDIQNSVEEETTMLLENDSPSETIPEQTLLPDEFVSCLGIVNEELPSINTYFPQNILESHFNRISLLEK


Assays:
[1] = test system: peripheral blood mononuclear cells (PBMCs); assay: PBMC pSTAT3 Assay; format: cell-based; conditions: PBMCs from healthy donors; IL-23 5 ng/ml; 30 minutes stimulation
Description: Cryopreserved peripheral blood mononuclear cells (PBMCs) from healthy donors were thawed and washed twice in ImmunoCult-XF T cell expansion medium (XF-TCEM) supplemented with CTL anti-aggregate wash. The cells were counted, resuspended at 2×10^5 cells per mL XF-TCEM supplemented with penicillin/streptomycin and 100 ng/ml […] (BioLegend, 579404), and cultured in tissue culture flasks coated with anti-CD3 (eBioscience, 16-0037-85 or BD Pharmingen, 555329) at 37° C. in 5% CO2. On day 4 of culture, PBMCs were collected, washed twice in RPMI-1640 supplemented with 0.1% BSA (RPMI-BSA), and incubated in RPMI-BSA in upright tissue culture flasks for 4 hours at 37° C. in 5% CO2. Following this ‘starvation,’ a total of 6×10^4 cells in 30 μL RPMI-BSA was transferred into each well of a 384-well plate pre-spotted with peptide or DMSO. The cells were incubated for 30 minutes prior to the addition of IL-23 at a final concentration of 5 ng/ml. The cells were stimulated with cytokine for 30 minutes at 370C in 5% CO2, transferred onto ice for 10 minutes, and lysed. Cell lysates were stored at −80° C. until phosphorylated STAT3 was measured using the phospho-STAT panel kit (Meso Scale Discovery, K15202D).

[2] = biological target: T1, interleukin-23 receptor (IL-23R); assay: cell-based or functional assay
[3] = biological target: T1, interleukin-23 receptor (IL-23R); assay: cell-based or functional assay; remark: listed apart in the source

Molecule | PBMC pSTAT3 IC50 [2] | IC50, IL23R Reporter Assay [3] | IC50 [1]
MeCO-r-Abu (1)-N-T-W-K(Ac)-aMeC (1)-AEF-2Nal-THP-E-N-3Pya-Sar-CONH2 [compound 478] |  |  | 0.015 nM
MeCO-r-Pen-N-T-7MeW-K(Ac)-Pen-AEF-2Nal-THP-E-N-5MePyridinAla-Sar-CONH2 [compound 345] |  |  | 0.0076 nM
Ac-[dR][Pen]NT[Trp(7-Me)]K(Ac)[Pen][AEF′][2Nal][THP]EN[3Pal(5-Me)][Sar]-NH2 (disulfide 2-7; reading uncertain; also: printed as MeCO-r-Pen-N-T-7MeW-K(Ac)-Pen-AEF-2Nal-THP-E-N-5MePyridinAla-Sar-CONH2) [Compound 345] | 7.6 pM | 5 nM | 

More lines, main results first:

PBMC pSTAT3 IC50 [2] | IC50, IL23R Reporter Assay [3] | Molecule | IC50 [1]
15 pM |  | Ac-[dR][Abu]NTWK(Ac)[αMeC][AEF′][2Nal][THP]ENX[Sar]-NH2 (thioether 2-7; not fully specified (residue 13); printed as MeCO-r-Abu (1)-N-T-W-K(Ac)-aMeC (1)-AEF-2Nal-THP-E-N-3Pya-Sar-CONH2) [Compound 478] | 
5.5 pM | 91 nM | Ac-[Pen]NT[Trp(7-Me)]K(Ac)[Pen][AEF(G)][2Nal][THP]EN[3Pal][Sar]-NH2 (disulfide 1-6; reading uncertain; also: printed as MeCO-Pen-N-T-7MeW-K(Ac)-Pen-AEF(G)-2Nal-THP-E-N-3Pya-Sar-CONH2) [Compound 477] | 
